± gives the standard deviation of the averaged measurements.
How the values were obtained:
[1] = test system: MCF7; test: percentage of EdU-negative (G0-arrested) nuclei per well, 72 h; higher = more G0 arrest; settings: reference: sequence is the full UniProt precursor, the tested protein was the secreted form or ectodomain
[2] = test system: hTERT-HMEC; test: as above; settings: reference: sequence is the full UniProt precursor, the tested protein was the secreted form or ectodomain
[3] = protein concentration 0.01925 µM
[4] = protein concentration 0.1925 µM
[5] = protein concentration 0.0322857 µM
[6] = protein concentration 0.322857 µM
[7] = protein concentration 0.0165714 µM
[8] = protein concentration 0.165714 µM
[9] = protein concentration 0.021935 µM
[10] = protein concentration 0.21935 µM
[11] = protein concentration 0.00575 µM
[12] = protein concentration 0.0575 µM
[13] = protein concentration 0.0225 µM
[14] = protein concentration 0.03125 µM
[15] = protein concentration 0.3125 µM
[16] = protein concentration 0.02175 µM
[17] = protein concentration 0.2175 µM
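Also: secreted proteins added to cultured cells, EdU pulse at the end, nuclei found by Hoechst imaging, EdU status from nuclear versus surrounding ring intensity ratio, PBS as neutral control.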

MARFGLPALLCTLAVLSAALLAAELKSKSCSEVRRLYVSKGFNKNDAPLHEINGDHLKICPQGSTCCSQEMEEKYSLQSKDDFKSVVSEQCNHLQAVFASRYKKFDEFFKELLENAEKSLNDMFVKTYGHLYMQNSELFKDLFVELKRYYVVGNVNLEEMLNDFWARLLERMFRLVNSQYHFTDEYLECVSKYTEQLKPFGDVPRKLKLQVTRAFVAARTFAQGLAVAGDVVSKVSVVNPTAQCTHALLKMIYCSHCRGLVTVKPCYNYCSNIMRGCLANQGDLDFEWNNFIDAMLMVAERLEGPFNIESVMDPIDVKISDAIMNMQDNSVQVSQKVFQGCGPPKPLPAGRISRSISESAFSARFRPHHPEERPTTAAGTSLDRLVTDVKEKLKQAKKFWSSLPSNVCNDERMAAGNGNEDDCWNGKGKSRYLFAVTGNGLANQGNNPEVQVDTSKPDILILRQIMALRVMTSKMKNAYNGNDVDFFDISDESSGEGSGSGCEYQQCPSEFDYNATDHAGKSANEKADSAGVRPGAQAYLLTVFCILFLVMQREWR
percentage of EdU-negative [1, 3]: 26.5 ± 0.51%
percentage of EdU-negative [1, 4]: 29.9 ± 0.64%
percentage of EdU-negative [2, 3]: 4.9 ± 0.24%
percentage of EdU-negative [2, 4]: 4.77 ± 0.82%

MASYLYGVLFAVGLCAPIYCVSPANAPSAYPRPSSTKSTPASQVYSLNTDFAFRLYRRLVLETPSQNIFFSPVSVSTSLAMLSLGAHSVTKTQILQGLGFNLTHTPESAIHQGFQHLVHSLTVPSKDLTLKMGSALFVKKELQLQANFLGNVKRLYEAEVFSTDFSNPSIAQARINSHVKKKTQGKVVDIIQGLDLLTAMVLVNHIFFKAKWEKPFHPEYTRKNFPFLVGEQVTVHVPMMHQKEQFAFGVDTELNCFVLQMDYKGDAVAFFVLPSKGKMRQLEQALSARTLRKWSHSLQKRWIEVFIPRFSISASYNLETILPKMGIQNVFDKNADFSGIAKRDSLQVSKATHKAVLDVSEEGTEATAATTTKFIVRSKDGPSYFTVSFNRTFLMMITNKATDGILFLGKVENPTKS [Q86WD7]
percentage of EdU-negative [1, 5]: 27.1 ± 1.6%
percentage of EdU-negative [1, 6]: 25.7 ± 0.86%
percentage of EdU-negative [2, 5]: 5.19 ± 0.14%
percentage of EdU-negative [2, 6]: 6.1 ± 0.46%

MGPLSAPPCTQRITWKGLLLTALLLNFWNLPTTAQVTIEAEPTKVSKGKDVLLLVHNLPQNLAGYIWYKGQMKDLYHYITSYVVDGQIIIYGPAYSGRETVYSNASLLIQNVTREDAGSYTLHIVKRGDGTRGETGHFTFTLYLETPKPSISSSNLYPREDMEAVSLTCDPETPDASYLWWMNGQSLPMTHSLQLSKNKRTLFLFGVTKYTAGPYECEIRNPVSASRSDPVTLNLLPKLPKPYITINNLNPRENKDVLAFTCEPKSENYTYIWWLNGQSLPVSPRVKRPIENRILILPSVTRNETGPYQCEIQDRYGGIRSYPVTLNVLYGPDLPRIYPSFTYYHSGENLYLSCFADSNPPAEYSWTINGKFQLSGQKLFIPQITTKHSGLYACSVRNSATGMESSKSMTVKVSAPSGTGHLPGLNPL
percentage of EdU-negative [1, 7]: 24.4 ± 1.2%
percentage of EdU-negative [1, 8]: 24.3 ± 0.28%
percentage of EdU-negative [2, 7]: 4.85 ± 0.26%
percentage of EdU-negative [2, 8]: 5.01 ± 0.47%

MLPAATASLLGPLLTACALLPFAQGQTPNYTRPVFLCGGDVKGESGYVASEGFPNLYPPNKECIWTITVPEGQTVSLSFRVFDLELHPACRYDALEVFAGSGTSGQRLGRFCGTFRPAPLVAPGNQVTLRMTTDEGTGGRGFLLWYSGRATSGTEHQFCGGRLEKAQGTLTTPNWPESDYPPGISCSWHIIAPPDQVIALTFEKFDLEPDTYCRYDSVSVFNGAVSDDSRRLGKFCGDAVPGSISSEGNELLVQFVSDLSVTADGFSASYKTLPRGTAKEGQGPGPKRGTEPKVKLPPKSQPPEKTEESPSAPDAPTCPKQCRRTGTLQSNFCASSLVVTATVKSMVREPGEGLAVTVSLIGAYKTGGLDLPSPPTGASLKFYVPCKQCPPMKKGVSYLLMGQVEENRGPVLPPESFVVLHRPNQDQILTNLSKRKCPSQPVRAAASQD
percentage of EdU-negative [1, 9]: 22.7 ± 2.1%
percentage of EdU-negative [1, 10]: 26.5 ± 0.72%
percentage of EdU-negative [2, 9]: 4.8 ± 0.62%
percentage of EdU-negative [2, 10]: 6.48 ± 0.73%

MVRPMLLLSLGLLAGLLPALAACPQNCHCHSDLQHVICDKVGLQKIPKVSEKTKLLNLQRNNFPVLAANSFRAMPNLVSLHLQHCQIREVAAGAFRGLKQLIYLYLSHNDIRVLRAGAFDDLTELTYLYLDHNKVTELPRGLLSPLVNLFILQLNNNKIRELRAGAFQGAKDLRWLYLSENALSSLQPGALDDVENLAKFHVDRNQLSSYPSAALSKLRVVEELKLSHNPLKSIPDNAFQSFGRYLETLWLDNTNLEKFSDGAFLGVTTLKHVHLENNRLNQLPSNFPFDSLETLALTNNPWKCTCQLRGLRRWLEAKASRPDATCASPAKFKGQHIRDTDAFRSCKFPTKRSKKAGRH
percentage of EdU-negative [1, 11]: 26.1 ± 0.54%
percentage of EdU-negative [1, 12]: 29 ± 0.99%
percentage of EdU-negative [2, 11]: 5.33 ± 0.1%
percentage of EdU-negative [2, 12]: 7.33 ± 0.97%

MGIGRSEGGRRGAALGVLLALGAALLAVGSASEYDYVSFQSDIGPYQSGRFYTKPPQCVDIPADLRLCHNVGYKKMVLPNLLEHETMAEVKQQASSWVPLLNKNCHAGTQVFLCSLFAPVCLDRPIYPCRWLCEAVRDSCEPVMQFFGFYWPEMLKCDKFPEGDVCIAMTPPNATEASKPQGTTVCPPCDNELKSEAIIEHLCASEFALRMKIKEVKKENGDKKIVPKKKKPLKLGPIKKKDLKKLVLYLKNGADCPCHQLDNLSHHFLIMGRKVKSQYLLTAIHKWDKKNKEFKNFMKKMKNHECPTFQSVFK [Q8N474]
percentage of EdU-negative ([1]; protein concentration 0.008 µM): 25.5 ± 1.6%
percentage of EdU-negative ([1]; protein concentration 0.08 µM): 26.5 ± 2.3%
percentage of EdU-negative ([2]; protein concentration 0.008 µM): 5.94 ± 0.1%
percentage of EdU-negative ([2]; protein concentration 0.08 µM): 7.36 ± 1.1%

MSGGRAPAVLLGGVASLLLSFVWMPALLPVASRLLLLPRVLLTMASGSPPTQPSPASDSGSGYVPGSVSAAFVTCPNEKVAKEIARAVVEKRLAACVNLIPQITSIYEWKGKIEEDSEVLMMIKTQSSLVPALTDFVRSVHPYEVAEVIALPVEQGNFPYLQWVRQVTESVSDSITVLP
percentage of EdU-negative [1, 13]: 25.3 ± 1.7%
percentage of EdU-negative ([1]; protein concentration 0.225 µM): 25.2 ± 1.5%
percentage of EdU-negative [2, 13]: 4.5 ± 0.32%
percentage of EdU-negative ([2]; protein concentration 0.225 µM): 5.97 ± 0.34%

MNCVCRLVLVVLSLWPDTAVAPGPPPGPPRVSPDPRAELDSTVLLTRSLLADTRQLAAQLRDKFPADGDHNLDSLPTLAMSAGALGALQLPGVLTRLRADLLSYLRHVQWLRRAGGSSLKTLEPELGTLQARLDRLLRRLQLLMSRLALPQPPPDPPAPPLAPPSSAWGGIRAAHAILGGLHLTLDWAVRGLLLLKTRL
percentage of EdU-negative [1, 14]: 26.7 ± 0.82%
percentage of EdU-negative [1, 15]: 25.4 ± 0.86%
percentage of EdU-negative [2, 14]: 4.51 ± 0.15%
percentage of EdU-negative [2, 15]: 6.32 ± 0.64%

MLLPLLLLLPMCWAVEVKRPRGVSLTNHHFYDESKPFTCLDGSATIPFDQVNDDYCDCKDGSDEPGTAACPNGSFHCTNTGYKPLYIPSNRVNDGVCDCCDGTDEYNSGVICENTCKEKGRKERESLQQMAEVTREGFRLKKILIEDWKKAREEKQKKLIELQAGKKSLEDQVEMLRTVKEEAEKPEREAKEQHQKLWEEQLAAAKAQQEQELAADAFKELDDDMDGTVSVTELQTHPELDTDGDGALSEAEAQALLSGDTQTDATSFYDRVWAAIRDKYRSEALPTDLPAPSAPDLTEPKEEQPPVPSSPTEEEEEEEEEEEEEAEEEEEEEDSEEAPPPLSPPQPASPAEEDKMPPYDEQTQAFIDAAQEARNKFEEAERSLKDMEESIRNLEQEISFDFGPNGEFAYLYSQCYELTTNEYVYRLCPFKLVSQKPKLGGSPTSLGTWGSWIGPDHDKFSAMKYEQGTGCWQGPNRSTTVRLLCGKETMVTSTTEPSRCEYLMELMTPAACPEPPPEAPTEDDHDEL
percentage of EdU-negative [1, 16]: 27.5 ± 0.87%
percentage of EdU-negative [1, 17]: 24.9 ± 0.62%
percentage of EdU-negative [2, 16]: 5.19 ± 1.2%
percentage of EdU-negative [2, 17]: 5.7 ± 0.68%

MLGVLELLLLGAAWLAGPARGQNETEPIVLEGKCLVVCDSNPTSDPTGTALGISVRSGSAKVAFSAIRSTNHEPSEMSNRTMIIYFDQVLVNIGNNFDSERSTFIAPRKGIYSFNFHVVKVYNRQTIQVSLMLNGWPVISAFAGDQDVTREAASNGVLIQMEKGDRAYLKLERGNLMGGWKYSTFSGFLVFPL
percentage of EdU-negative [1, 13]: 24.7 ± 1.6%
percentage of EdU-negative ([1]; protein concentration 0.225 µM): 24.9 ± 2.3%
percentage of EdU-negative [2, 13]: 5.16 ± 0.97%
percentage of EdU-negative ([2]; protein concentration 0.225 µM): 5.71 ± 0.24%

MARAGPAWLLLAIWVVLPSWLSSAKVSSLIERISDPKDLKKLLRTRNNVLVLYSKSEVAAENHLRLLSTVAQAVKGQGTICWVDCGDAESRKLCKKMKVDLSPKDKKVELFHYQDGAFHTEYNRAVTFKSIVAFLKDPKGPPLWEEDPGAKDVVHLDSEKDFRRLLKKEEKPLLIMFYAPWCSMCKRMMPHFQKAATQLRGHAVLAGMNVYSSEFENIKEEYSVRGFPTICYFEKGRFLFQYDNYGSTAEDIVEWLKNPQPPQPQVPETPWADEGGSVYHLTDEDFDQFVKEHSSVLVMFHAPWCGHCKKMKPEFEKAAEALHGEADSSGVLAAVDATVNKALAERFHISEFPTLKYFKNGEKYAVPVLRTKKKFLEWMQNPEAPPPPEPTWEEQQTSVLHLVGDNFRETLKKKKHTLVMFYAPWCPHCKKVIPHFTATADAFKDDRKIACAAVDCVKDKNQDLCQQEAVKGYPTFHYYHYGKFAEKYDSDRTELGFTNYIRALREGDHERLGKKKEEL
percentage of EdU-negative ([1]; protein concentration 0.019 µM): 22.8 ± 0.61%
percentage of EdU-negative ([1]; protein concentration 0.19 µM): 22.5 ± 0.95%
percentage of EdU-negative ([2]; protein concentration 0.019 µM): 4.5 ± 0.56%
percentage of EdU-negative ([2]; protein concentration 0.19 µM): 6.73 ± 0.2%

MGRRDAQLLAALLVLGLCALAGSEKPSPCQCSRLSPHNRTNCGFPGITSDQCFDNGCCFDSSVTGVPWCFHPLPKQESDQCVMEVSDRRNCGYPGISPEECASRKCCFSNFIFEVPWCFFPKSVEDCHY
percentage of EdU-negative [1, 13]: 23 ± 1.6%
percentage of EdU-negative ([1]; protein concentration 0.225 µM): 24.8 ± 1.3%
percentage of EdU-negative [2, 13]: 5.31 ± 1.5%
percentage of EdU-negative ([2]; protein concentration 0.225 µM): 5.92 ± 0.79%
